± gives the standard deviation of the averaged measurements.
B1: library; a variant is named by its letters at N, in order (parent)
chain: GCUGUCACCGGUGCUUGGUACGUUAUAUUCAGCCGGUCUGAUGAGUCUNNNNNNAGACGAAACAGC

What was measured:
(6R,S)-folinic acid [1] = variants of: B1; assay: normalized RNA/DNA level without ligand (relative to sTRSVctl = 100) (log10 (% of sTRSVctl)); HEK293T overexpressing SLC46A1; higher = less ribozyme self-cleavage, higher mRNA level; details: without (6R,S)-folinic acid; ligand present: no
Procedure, shortened: (§1)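 Ribozyme switch library plasmids linked to reporters were introduced into HEK293T cells at 4 µg per 6-well well, with ligand, if any, added 1 h before. Total RNA was extracted with EDTA 72 h later, reverse-transcribed, amplified, barcoded and sequenced. RNA level was computed from RNA over DNA reads relative to a spiked-in non-cleaving sequence or the top sequences, then scaled and log-transformed. The top set was 25 sequences, values were ×100 and log10, and the cutoff was ≥100 DNA reads.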

(6R,S)-folinic acid [2] = variants of: B1; assay: normalized RNA/DNA level with ligand (relative to sTRSVctl = 100) (log10 (% of sTRSVctl)); HEK293T overexpressing SLC46A1; ligand concentration (+) RNA-Seq: 6 mM; higher = less ribozyme self-cleavage, higher mRNA level; details: with (6R,S)-folinic acid; ligand present: yes
Procedure, shortened: as §1

Variant | normalized RNA/DNA level without ligand (log10) ((6R,S)-folinic acid [1]) | normalized RNA/DNA level with ligand (log10) ((6R,S)-folinic acid [2])
UUCACA | 1.966 ± 0.017 | 1.971 ± 0.015
UUCACG | 1.954 ± 0.013 | 2.01 ± 0.028
UUCACC | 2.06 ± 0.036 | 2.02 ± 0.068
UUACCG | 1.969 ± 0.0046 | 2 ± 0.04
UUACCA | 2.03 ± 0.0034 | 2.028 ± 0.016
UUACCU | 2.061 ± 0.0025 | 2.05 ± 0.04
GUACUG | 2.002 ± 0.013 | 2.015 ± 0.017
CUACCG | 2.06 ± 0.029 | 2.05 ± 0.025
CUACCA | 2.0575 ± 0.0015 | 2.0336 ± 0.0013
CUACCU | 2.044 ± 0.02 | 2.01 ± 0.026
CUACCC | 2.045 ± 0.011 | 2 ± 0.047
UUCAAC | 2.026 ± 0.015 | 2.02 ± 0.046
GUAUAU | 1.944 ± 0.018 | 1.97 ± 0.043
GUAUAC | 1.9802 ± 0.0015 | 2.02 ± 0.026
GUAUAA | 1.96 ± 0.014 | 1.99 ± 0.006
AUAAUG | 1.91 ± 0.021 | 2 ± 0.043
AUAAUU | 1.99 ± 0.025 | 2.03 ± 0.038
AUAAUC | 2.024 ± 0.015 | 2 ± 0.032
AUAUUA | 1.963 ± 0.012 | 1.996 ± 0.019
AUAUUU | 2.008 ± 0.0083 | 2.02 ± 0.027
AUACUG | 1.939 ± 0.0046 | 2.01 ± 0.03
AUACUU | 2.018 ± 0.013 | 2.01 ± 0.043
AUACUA | 1.97 ± 0.026 | 1.99 ± 0.025

Variant | normalized RNA/DNA level without ligand (log10) ((6R,S)-folinic acid [1]) | normalized RNA/DNA level with ligand (log10) ((6R,S)-folinic acid [2])
AUACGU | 2.005 ± 0.0023 | 2.026 ± 0.01
AUACGC | 2.015 ± 0.018 | 1.998 ± 0.013
AUACGA | 1.9851 ± 0.0003 | 2.01 ± 0.043
GUACAA | 1.966 ± 0.013 | 1.986 ± 0.011
GUACAU | 1.965 ± 0.005 | 2.01 ± 0.034
UUAGCU | 2.007 ± 0.0056 | 2.02 ± 0.047
UUAGCC | 2.013 ± 0.0037 | 1.99 ± 0.026
UUAGCG | 1.896 ± 0.0052 | 1.98 ± 0.032
CUAAUU | 2.011 ± 0.01 | 2.02 ± 0.061
CUAAUG | 2.026 ± 0.013 | 2.02 ± 0.038
CUAAUC | 2.072 ± 0.014 | 2.007 ± 0.013
GUAGCG | 1.93 ± 0.023 | 2.01 ± 0.036
GUAGCA | 1.973 ± 0.0074 | 2 ± 0.022
GUAGCC | 2.021 ± 0.016 | 2.051 ± 0.0086
GUAGAC | 1.911 ± 0.0045 | 2.003 ± 0.01
GUCAAU | 1.975 ± 0.018 | 2.02 ± 0.045
GUCAAC | 2.0058 ± 0.0019 | 2.03 ± 0.03
GUCAAA | 1.994 ± 0.009 | 1.99 ± 0.037
CUAUCG | 2.037 ± 0.015 | 2.02 ± 0.043
CUAUCU | 2.042 ± 0.0051 | 2.06 ± 0.022
CUAUCC | 2.07 ± 0.03 | 2.04 ± 0.037
CUAUCA | 2.03 ± 0.035 | 2.0307 ± 0.00092
CUAAAU | 1.977 ± 0.0084 | 1.99 ± 0.034

Variant | normalized RNA/DNA level without ligand (log10) ((6R,S)-folinic acid [1]) | normalized RNA/DNA level with ligand (log10) ((6R,S)-folinic acid [2])
CUAAAC | 1.983 ± 0.006 | 1.992 ± 0.018
UUAUGC | 1.989 ± 0.0091 | 2.02 ± 0.039
UUAUGG | 1.798 ± 0.008 | 1.97 ± 0.0093
AGUUUC | 2.02 ± 0.024 | 2 ± 0.025
AGUUUA | 1.9996 ± 0.00042 | 2.03 ± 0.037
AGUUUG | 1.958 ± 0.0094 | 2.023 ± 0.017
AGUUUU | 2.01 ± 0.027 | 1.98 ± 0.02
CUACGC | 2.025 ± 0.013 | 2.028 ± 0.0021
CUACGU | 2 ± 0.01 | 1.99 ± 0.035
CUACGA | 2.045 ± 0.012 | 2.05 ± 0.028
CUACGG | 2.102 ± 0.0025 | 2.092 ± 0.0045
AUAUAA | 1.956 ± 0.0059 | 1.96 ± 0.032
UGUUCG | 1.761 ± 0.017 | 1.96 ± 0.031
UGUUCU | 2.031 ± 0.0043 | 2.08 ± 0.035
UGUUCA | 1.991 ± 0.012 | 2.0188 ± 0.0011
CUACAC | 2.05 ± 0.011 | 2.023 ± 0.016
CUACAA | 1.98 ± 0.0052 | 1.99 ± 0.024
CUACAU | 1.974 ± 0.0066 | 2.02 ± 0.039
CUACAG | 1.977 ± 0.011 | 2.03 ± 0.029
CGUUCG | 2.0527 ± 1.7e-05 | 2.04 ± 0.047
CGUUCC | 2.07 ± 0.026 | 2.028 ± 0.017
CGUUCA | 2.024 ± 0.004 | 2.044 ± 0.017
CGUUCU | 2.07 ± 0.034 | 2.03 ± 0.034

Variant | normalized RNA/DNA level without ligand (log10) ((6R,S)-folinic acid [1]) | normalized RNA/DNA level with ligand (log10) ((6R,S)-folinic acid [2])
UUAUAA | 1.925 ± 0.0034 | 1.981 ± 0.017
UUAUAU | 1.9416 ± 0.0019 | 2 ± 0.057
AUAUGC | 1.9727 ± 0.0008 | 1.99 ± 0.046
GUAUCG | 2.028 ± 0.017 | 2.05 ± 0.041
GUAUCU | 2.034 ± 0.0026 | 2.038 ± 0.011
GUAUCC | 2.015 ± 0.013 | 2 ± 0.035
CUAUAU | 2 ± 0.033 | 2.03 ± 0.063
CUAUAA | 1.984 ± 0.0043 | 1.978 ± 0.0033
CUAUAC | 2.001 ± 0.0069 | 2.01 ± 0.014
CUACUU | 2.03 ± 0.022 | 2.02 ± 0.039
CUACUG | 2.0146 ± 0.00058 | 2.04 ± 0.024
CUACUC | 2.05 ± 0.021 | 2.03 ± 0.039
CUACUA | 2.02 ± 0.021 | 2.05 ± 0.04
AUACCC | 2.023 ± 0.003 | 2.01 ± 0.023
AUACCG | 2.013 ± 0.013 | 2.04 ± 0.042
AUACCU | 2.0169 ± 0.00086 | 2.025 ± 0.011
GUCACA | 1.991 ± 0.0044 | 1.996 ± 0.0028
GUCACU | 2.02 ± 0.025 | 2.03 ± 0.042
UUAACA | 1.998 ± 0.0047 | 1.971 ± 0.01
UUAACU | 2.041 ± 0.0026 | 2.018 ± 0.0049
UUAACC | 2.016 ± 0.0049 | 2 ± 0.025
UUAACG | 1.934 ± 0.018 | 1.984 ± 0.019
GUACGU | 1.986 ± 0.006 | 2.03 ± 0.049

Variant | normalized RNA/DNA level without ligand (log10) ((6R,S)-folinic acid [1]) | normalized RNA/DNA level with ligand (log10) ((6R,S)-folinic acid [2])
GUACGC | 2.01 ± 0.029 | 2.03 ± 0.026
CUCACC | 2.06 ± 0.029 | 1.96 ± 0.048
CUCACA | 2.036 ± 0.0022 | 2 ± 0.049
CUCACG | 2.04 ± 0.027 | 2.028 ± 0.02
CUCACU | 2.041 ± 0.0055 | 1.99 ± 0.021
GUAAAG | 1.94 ± 0.015 | 2 ± 0.027
UUACUC | 2.048 ± 0.0074 | 2.03 ± 0.027
UUACUU | 1.991 ± 0.0083 | 1.994 ± 0.019
UUACUA | 1.978 ± 0.0023 | 2.01 ± 0.034
UUCAGU | 1.9849 ± 0.0019 | 2.01 ± 0.043
UUCAGA | 1.975 ± 0.011 | 2 ± 0.021
UUCAGC | 2.063 ± 0.016 | 2.048 ± 0.014
GUAAUU | 2.013 ± 0.0027 | 1.99 ± 0.024
AUAGUC | 2.056 ± 0.0045 | 2.03 ± 0.033
AUAGUU | 1.9853 ± 0.0008 | 2.009 ± 0.01
CUAGUU | 2.064 ± 0.0034 | 2.03 ± 0.041
CUAGUC | 2.081 ± 0.0096 | 2.025 ± 0.015
CUAGUG | 2 ± 0.028 | 2.03 ± 0.014
CUAGUA | 1.996 ± 0.015 | 2 ± 0.034
GUAUUG | 1.9409 ± 0.00012 | 2.003 ± 0.0063
GUAUUA | 2.005 ± 0.01 | 2 ± 0.072
GUAUUC | 2.03 ± 0.025 | 2.021 ± 0.019
UUAAAU | 1.974 ± 0.0099 | 2.01 ± 0.024
